Experimental data taken from patent US8114968 (DYAX, dated 2012).

How the values were obtained:
human MMP-12 [1] = molecular target: T1, human MMP-12 (human, UniProt P39900 106-470, limits assumed); assay: cell-based or functional assay
human MMP-12 [2] = molecular target: T1, human MMP-12; assay: Ki from inhibition of MMP-12 enzyme activity
human MMP-12 [3] = molecular target: T1, human MMP-12; assay: BIACORE, coated Fab
murine MMP-12 [4] = molecular target: T2, murine MMP-12 (mouse, UniProt P34960 110-473, limits assumed); assay: BIACORE, coated Fab
T2 construct: also called mouse MMP12; mMMP12
T2 sequence (P34960 110-473 limits assumed): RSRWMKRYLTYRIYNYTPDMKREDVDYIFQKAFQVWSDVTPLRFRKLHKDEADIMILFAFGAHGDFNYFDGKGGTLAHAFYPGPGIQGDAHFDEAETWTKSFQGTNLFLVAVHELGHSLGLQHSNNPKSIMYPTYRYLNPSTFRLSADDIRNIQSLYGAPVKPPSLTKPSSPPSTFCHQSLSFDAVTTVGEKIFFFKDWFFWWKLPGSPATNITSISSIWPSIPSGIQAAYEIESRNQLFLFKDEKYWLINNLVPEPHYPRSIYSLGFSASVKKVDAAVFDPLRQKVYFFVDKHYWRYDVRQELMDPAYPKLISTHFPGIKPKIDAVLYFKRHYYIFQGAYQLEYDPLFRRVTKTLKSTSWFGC

human MMP-12 [5] = molecular target: T1, human MMP-12; assay: cell-based or functional assay; remark: listed apart in the source
human MMP-12 [6] = molecular target: T1, human MMP-12; assay: cell-based or functional assay; remark: listed apart in the source
murine MMP-12 [7] = molecular target: T2, murine MMP-12; assay: cell-based or functional assay
human MMP-12 [8] = molecular target: T1, human MMP-12; assay: inhibition assay of MMP-12 activity ('IC50 or Ki')
human MMP-12 [9] = molecular target: T1, human MMP-12; assay: IC50 against substrate concentration, enzyme inhibition, FIG. 3
murine MMP-12 [10] = molecular target: T2, murine MMP-12; assay: as above

T1 sequence (P39900 106-470 limits assumed): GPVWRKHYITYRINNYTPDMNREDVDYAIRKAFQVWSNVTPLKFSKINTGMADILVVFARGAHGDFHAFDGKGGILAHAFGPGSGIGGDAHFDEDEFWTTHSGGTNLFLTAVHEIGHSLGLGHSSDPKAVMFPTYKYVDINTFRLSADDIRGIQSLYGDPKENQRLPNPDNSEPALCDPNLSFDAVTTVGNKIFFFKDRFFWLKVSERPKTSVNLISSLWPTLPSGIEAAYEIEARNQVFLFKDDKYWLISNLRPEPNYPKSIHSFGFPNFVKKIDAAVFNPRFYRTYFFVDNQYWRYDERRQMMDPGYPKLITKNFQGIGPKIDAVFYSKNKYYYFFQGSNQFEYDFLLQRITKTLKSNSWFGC

Binder	IC50 (nM), IgGs (human MMP-12 [1])	Ki (human MMP-12 [2])	also measured
539A-M0016-A11 IgG (antibody, V domains shown, also called M0016-A11 IgG a-huMMP12) VH: EVQLLESGGGLVQPGGSLRLSCAASGFTFSEYQMAWVRQAPGKGLEWVSSIYPSGGHTHYADSVKGRFTISRDNSKNTLYLQMNSLRAEDTAVYYCAKESYYDFWSGYYFDYWGQGTLVTVSS VL: DIQMTQSPSSLSASVRDRVTITCRTSQNINTYLNWYYQAPGRAPKLLIFGVSSLHRGVSSRFSGSGDGTEFTLTISSLQPEDIGTYFCQQSYSSPWTFGQGTKVEIK	2.1 nM	0.7 nM	
539B-M0008-H09 Fab (Fab, V domains shown, N-glycosylation site in LC CDR1; also called M08H09) VH: EVQLLESGGGLVQPGGSLRLSCAASGFTFSDYNMHWVRQAPGKGLEWVSYIGPSGGYTHYADSVKGRFTISRDNSKNTLYLQMNSLRAEDTAVYYCAKDIRGAYSSGLFDYWGRGTLVTVSS VL: DIQMTQSPSSLSASVGDRVTITCRANQSIYTYLNWYQQKPGKAPELLIYAASSLQSGVPSRFSGSGSGTDFTLTISSLQPEDFATYYCQQAGIFGQGTKLEIK			Kd (human MMP-12 [3]): 17.7 nM; koff (murine MMP-12 [4]): 0.004 s⁻¹; % of activity left with 100 nM in assay 04 Oct. 2006 (human MMP-12 [5]): 4.6%; IC50hu (human MMP-12 [6]): 12.1 nM; IC50 m (murine MMP-12 [7]): < 10 nM (not printed; inferred)
539B-M131A06 (antibody, V domains shown, N-glycosylation site in LC CDR1; also called M0131-A06) VH: EVQLLESGGGLVQPGGSLRLSCAASGFTFSWYWMHWVRQAPGKGLEWVSGISPSGGMTMYADSVKGRFTISRDNSKNTLYLQMNSLRAEDTAVYYCARDIVGPYSAGLFDYWGRGTLVTVSS VL: DIQMTQSPSSLSASVGDRVTITCRANQSIYTYLNWYQQKPGKAPELLIYAASSLQSGVPSRFSGSGSGTDFTLTISSLQPEDFATYYCQQAGIFGQGTKLEIK			Ki (human MMP-12 [8]): < 0.3 nM
539A-M0013-D11 IgG (antibody, V domains shown) VH: EVQLLESGGGLVQPGGSLRLSCAASGFTFSSYPMWWVRQAPGKGLEWVSGIVPSGGVTIYADSVKGRFTISRDNSKNTLYLQMNSLRAEDTAVYYCARVGWLASSDYYYYMDVWGKGTTVTVSS VL: DIQMTQSPSSLSASVGDRITISCQASQDIDNYLNWYQQRSGKAPKLLIYDAYNLKAGVPSRFRGSRSGTDFFLTISSLQPEDFATYYCQQSYRAPLTFGGGTKVEIK	13.3 nM	4.97 nM	
539A-M0013-G12 IgG (antibody, V domains shown, also called M0013-G12 IgG a-huMMP12) VH: EVQLLESGGGLVQPGGSLRLSCAASGFTFSWYHMFWVRQAPGKGLEWVSGISSSGGYTHYADSVKGRFTISRDNSKNTLYLQMNSLRAEDTAVYYCATREGMLYDYVWGENYMDVWGKGTTVTVSS VL: DIQMTQSPSSLSASVGDRVTITCQASQDTYNRLHWYQQKPGKAPKLLIYDAVNLNRGVPSRFRGSGSGTNYILIITNLQPEDTATYYCQHSDDLSLAFGGGTKVEIK	4.1 nM	2.05 nM	
539A-M0013-H06 IgG (antibody, V domains shown) VH: EVQLLESGGGLVQPGGSLRLSCAASGFTFSAYEMDWVRQAPGKGLEWVSGISSSGGPTYYADSVKGRFTISRDNSKNTLYLQMNSLRAEDTAVYYCARVGGWELLQDYYYYMDVWGKGTTVTVSS VL: DIQMTQSPATLSLSPGERATLSCRASHSVDNLAWYQQQPGQAPRLLIYDVSYRATGIPARFSGSGSGTDFTLTISSLEPEDFAVYYCQQRNNWPLSLTFGGGTKVEIK	5.3 nM	2.7 nM	
539B-M0008-H09 (format not stated) (antibody, V domains shown, Same clone as m49 and m54; also called M08H09) VH: EVQLLESGGGLVQPGGSLRLSCAASGFTFSDYNMHWVRQAPGKGLEWVSYIGPSGGYTHYADSVKGRFTISRDNSKNTLYLQMNSLRAEDTAVYYCAKDIRGAYSSGLFDYWGRGTLVTVSS VL: DIQMTQSPSSLSASVGDRVTITCRANQSIYTYLNWYQQKPGKAPELLIYAASSLQSGVPSRFSGSGSGTDFTLTISSLQPEDFATYYCQQAGIFGQGTKLEIK			Ki (human MMP-12 [9]): 2.8 nM; Ki (murine MMP-12 [10]): 2.2 nM
